B1: Ceroid-lipofuscinosis neuronal protein 6 (Homo sapiens), Q9NWW5 (parent)
chain: MEATRRRQHLGATGGPGAQLGASFLQARHGSVSADEAARTAPFHLDLWFYFTLQNWVLDFGRPIAMLVFPLEWFPLNKPSVGDYFHMAYNVITPFLLLKLIERSPRTLPRSITYVSIIIFIMGASIHLVGDSVNHRLLFSGYQHHLSVRENPIIKNLKPETLIDSFELLYYYDEYLGHCMWYIPFFLILFMYFSGCFTASKAESLIPGPALLLVAPSGLYYWYLVTEGQIFILFIFTFFAMLALVLHQKRKRLFLDSNGLFLFSSFALTLLLVALWVAWLWNDPVLRKKYPGVIYVPEPWAFYTLHVSSRH

Variants of: B1
Conditions: with stx1a_human STX1A

| Variant | effect of a mutation on the interaction |
| --- | --- |
| R103Q | with no effect |
| G123D | with no effect |
| L47F | with no effect |

Variants of: B1
Conditions: with ar13b_human ARL13B

| Variant | effect of a mutation on the interaction |
| --- | --- |
| G123D | with no effect |
| L47F | with no effect |

Variants of: B1
Conditions: with cxa8_human GJA8, P48165
cxa8_human GJA8, P48165, sequence (P48165 whole entry): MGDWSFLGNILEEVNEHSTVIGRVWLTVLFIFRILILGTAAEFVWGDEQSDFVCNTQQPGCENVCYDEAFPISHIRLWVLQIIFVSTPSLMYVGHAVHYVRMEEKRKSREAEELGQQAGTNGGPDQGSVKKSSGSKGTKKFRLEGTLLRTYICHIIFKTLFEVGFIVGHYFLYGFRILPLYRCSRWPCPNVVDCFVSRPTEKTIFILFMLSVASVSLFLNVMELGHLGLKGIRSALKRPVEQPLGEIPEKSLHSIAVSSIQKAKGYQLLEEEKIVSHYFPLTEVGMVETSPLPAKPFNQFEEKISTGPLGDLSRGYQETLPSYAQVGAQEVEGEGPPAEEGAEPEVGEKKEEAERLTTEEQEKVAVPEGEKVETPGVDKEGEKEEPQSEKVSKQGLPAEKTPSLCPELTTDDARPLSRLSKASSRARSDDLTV

| Variant | effect of a mutation on the interaction |
| --- | --- |
| G123D | with no effect |

Variants of: B1
Conditions: with ki2l3_human KIR2DL3, P43628
ki2l3_human KIR2DL3, P43628, sequence (P43628 whole entry): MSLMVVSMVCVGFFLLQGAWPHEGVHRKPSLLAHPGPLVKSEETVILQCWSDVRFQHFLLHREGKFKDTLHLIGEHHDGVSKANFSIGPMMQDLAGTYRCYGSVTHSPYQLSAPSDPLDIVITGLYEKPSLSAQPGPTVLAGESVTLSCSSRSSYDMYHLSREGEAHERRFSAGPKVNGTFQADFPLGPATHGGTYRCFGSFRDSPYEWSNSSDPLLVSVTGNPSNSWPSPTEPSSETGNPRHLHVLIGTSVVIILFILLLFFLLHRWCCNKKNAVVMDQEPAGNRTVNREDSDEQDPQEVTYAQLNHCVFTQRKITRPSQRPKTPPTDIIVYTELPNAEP

| Variant | effect of a mutation on the interaction |
| --- | --- |
| G123D | with no effect |
| L47F | with no effect |

Variants of: B1
Conditions: with lrc25_human LRRC25, Q8N386
lrc25_human LRRC25, Q8N386, sequence (Q8N386 whole entry): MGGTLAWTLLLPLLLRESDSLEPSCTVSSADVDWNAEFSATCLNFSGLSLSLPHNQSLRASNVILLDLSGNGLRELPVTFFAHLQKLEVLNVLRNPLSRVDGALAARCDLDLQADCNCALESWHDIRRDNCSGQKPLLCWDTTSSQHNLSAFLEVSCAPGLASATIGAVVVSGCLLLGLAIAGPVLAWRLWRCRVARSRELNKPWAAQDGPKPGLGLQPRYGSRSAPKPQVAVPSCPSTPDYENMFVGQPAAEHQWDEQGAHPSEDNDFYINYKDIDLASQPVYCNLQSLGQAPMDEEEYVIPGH

| Variant | effect of a mutation on the interaction |
| --- | --- |
| G123D | with no effect |
| L47F | with no effect |

Variants of: B1
Conditions: with tm139_human TMEM139, Q8IV31
tm139_human TMEM139, Q8IV31, sequence (Q8IV31 whole entry): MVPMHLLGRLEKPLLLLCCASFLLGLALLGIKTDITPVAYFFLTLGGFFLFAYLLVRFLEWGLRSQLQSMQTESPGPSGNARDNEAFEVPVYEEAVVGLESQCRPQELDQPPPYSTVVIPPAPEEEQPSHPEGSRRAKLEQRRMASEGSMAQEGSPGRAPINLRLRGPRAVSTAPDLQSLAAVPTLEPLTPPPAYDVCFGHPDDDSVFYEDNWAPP

| Variant | effect of a mutation on the interaction |
| --- | --- |
| G123D | with no effect |
| L47F | with no effect |

Variants of: B1
Conditions: with cd79a_human CD79A

| Variant | effect of a mutation on the interaction |
| --- | --- |
| L47F | with no effect |

— IntAct's records for PubMed 32296183
